Consider 4 molecules from PMC10460399 (Nature Communications, 2023).

First the molecules themselves.
B1: Loqs-PD (Loquacious isoform D), full length (natural protein, Drosophila melanogaster, UniProt Q9VJY9-4 1-359, looked up)
chain: MDQENFHGSSLPQQLQNLHIQPQQASPNPVQTGFAPRRHYNNLVGLGNGNAVSGSPVKGAPLGQRHVKLKKEKISAQVAQLSQPGQLQLSDVGDPALAGGSGLQGGVGLMGVILPSDEALKFVSETDANGLAMKTPVSILQELLSRRGITPGYELVQIEGAIHEPTFRFRVSFKDKDTPFTAMGAGRSKKEAKHAAARALIDKLIGAQLPESPSSSAGPSVTGLTVAGSGGDGNANATGGGDASDKTVGNPIGWLQEMCMQRRWPPPSYETETEVGLPHERLFTIACSILNYREMGKGKSKKIAKRLAAHRMWMRLQETPIDSGKISDSICGELEGEVSIIQDIDRYEQVSKDFEFIKI
notes: Only a small segment of the C-terminus is seen in the maps; also called Loqs isoform D; source: Escherichia coli BL21 (DE3), purified (Ni-NTA, ULP1 cleavage, second Ni-NTA, SEC)
B2: 50-bp dsRNA (dsRNA)
RNA 1: GAGACUUGGGCAAUGUGACUGCUGAUCAGCAGUCACAUUGCCCAAGUCUCUU
RNA 2: B2 RNA 1
B3: DmDcr-2 mutant (D1217N/D1476N, DmDcr-2^DDNN) (enzyme, Drosophila melanogaster, UniProt A1ZAW0 1-1722, looked up)
chain: MEDVEIKPRGYQLRLVDHLTKSNGIVYLPTGSGKTFVAILVLKRFSQDFDKPIESGGKRALFMCNTVELARQQAMAVRRCTNFKVGFYVGEQGVDDWTRGMWSDEIKKNQVLVGTAQVFLDMVTQTYVALSSLSVVIIDECHHGTGHHPFREFMRLFTIANQTKLPRVVGLTGVLIKGNEITNVATKLKELEITYRGNIITVSDTKEMENVMLYATKPTEVMVSFPHQEQVLTVTRLISAEIEKFYVSLDLMNIGVQPIRRSKSLQCLRDPSKKSFVKQLFNDFLYQMKEYGIYAASIAIISLIVEFDIKRRQAETLSVKLMHRTALTLCEKIRHLLVQKLQDMTYDDDDDNVNTEEVIMNFSTPKVQRFLMSLKVSFADKDPKDICCLVFVERRYTCKCIYGLLLNYIQSTPELRNVLTPQFMVGRNNISPDFESVLERKWQKSAIQQFRDGNANLMICSSVLEEGIDVQACNHVFILDPVKTFNMYVQSKGRARTTEAKFVLFTADKEREKTIQQIYQYRKAHNDIAEYLKDRVLEKTEPELYEIKGHFQDDIDPFTNENGAVLLPNNALAILHRYCQTIPTDAFGFVIPWFHVLQEDERDRIFGVSAKGKHVISINMPVNCMLRDTIYSDPMDNVKTAKISAAFKACKVLYSLGELNERFVPKTLKERVASIADVHFEHWNKYGDSVTATVNKADKSKDRTYKTECPLEFYDALPRVGEICYAYEIFLEPQFESCEYTEHMYLNLQTPRNYAILLRNKLPRLAEMPLFSNQGKLHVRVANAPLEVIIQNSEQLELLHQFHGMVFRDILKIWHPFFVLDRRSKENSYLVVPLILGAGEQKCFDWELMTNFRRLPQSHGSNVQQREQQPAPRPEDFEGKIVTQWYANYDKPMLVTKVHRELTPLSYMEKNQQDKTYYEFTMSKYGNRIGDVVHKDKFMIEVRDLTEQLTFYVHNRGKFNAKSKAKMKVILIPELCFNFNFPGDLWLKLIFLPSILNRMYFLLHAEALRKRFNTYLNLHLLPFNGTDYMPRPLEIDYSLKRNVDPLGNVIPTEDIEEPKSLLEPMPTKSIEASVANLEITEFENPWQKYMEPVDLSRNLLSTYPVELDYYYHFSVGNVCEMNEMDFEDKEYWAKNQFHMPTGNIYGNRTPAKTNANVPALMPSKPTVRGKVKPLLILQKTVSKEHITPAEQGEFLAAITASSAADVFDMERLEILGNSFLKLSATLYLASKYSDWNEGTLTEVKSKLVSNRNLLFCLIDADIPKTLNTIQFTPRYTWLPPGISLPHNVLALWRENPEFAKIIGPHNLRDLALGDEESLVKGNCSDINYNRFVEGCRANGQSFYAGADFSSEVNFCVGLVTIPNKVIADTLEALLGVIVKNYGLQHAFKMLEYFKICRADIDKPLTQLLNLELGGKKMRANVNTTEIDGFLINHYYLEKNLGYTFKDRRYLLQALTHPSYPTNRITGSYQELEFIGNAILDFLISAYIFENNTKMNPGALTDLRSALVNNTTLACICVRHRLHFFILAENAKLSEIISKFVNFQESQGHRVTNYVRILLEEADVQPTPLDLDDELDMTELPHANKCISQEAEKGVPPKGEFNMSTNVDVPKALGDVLEALIAAVYLDCRDLQRTWEVIFNLFEPELQEFTRKVPINHIRQLVEHKHAKPVFSSPIVEGETVMVSCQFTCMEKTIKVYGFGSNKDQAKLSAAKHALQQLSKCDA
notes: Dicer-2 (DmDcr-2) of Drosophila melanogaster, full length, with D1217N/D1476N (no dicing activity, helicase activity kept); also called Dicer-2; source: sf9 cells (Bac-to-Bac baculovirus), co-expressed with R2D2, purified (Ni-NTA, Hitrap Q, 2nd Ni-NTA, SEC)
B4: 19-bp dsRNA (siRNA duplex) (dsRNA)
RNA 1: GAGACUUGGGCAAUGUGAAGU
RNA 2: GUCACAUUGCCCAAGUCUCUU

The target of data set [1] is B3. The data set can be described thus: cryo-EM structure; DmDcr-2^DDNN/R2D2/Loqs-PD complex with 50-bp dsRNA 1:1, 25 °C for 2 h, diluted to 1 uM in SEC buffer with 5 mM ATP and 5 mM MgCl2. Conditions: both partners purified.
The target of data set [2] is T1, DmDcr-2^DDNN/R2D2 complex (Drosophila melanogaster, UniProt A1ZAW0 1-1722; Q9VLW8 1-311, D1217N | D1476N).
T1 construct: Dicer-2 (DmDcr-2) of Drosophila melanogaster, full length, with D1217N/D1476N; as m1; R2D2 of Drosophila, full length; as m2; Complex formed beforehand, to which Loqs-PD was added; also called DmDcr-2/R2D2; source: sf9 cells (Bac-to-Bac baculovirus), co-expressed, purified (Ni-NTA, Hitrap Q, 2nd Ni-NTA, SEC)
Put plainly: SEC; purified DmDcr-2^DDNN/R2D2 and Loqs-PD mixed at a molar ratio of 1:1.5, on ice for 1 h; Superose 6 10/300 Increase in SEC buffer (100 mM NaCl, 20 mM Tris-HCl pH 8.0, 1 mM DTT). Conditions: both partners purified. (In general: In gel filtration, larger molecules generally elute earlier.)

The target of data set [3] is T2, DmDcr-2 DDNN;R2D2;Loqs-PD (Drosophila melanogaster;Drosophila …, UniProt A1ZAW0;Q9VLW8;Q9VJY9-4 1-1722;1-311;1-359, D1217N;D1476N||). The data set can be described thus: cryo-EM; ATP, Mg2+; Dimer state; Cryo-EM sample buffer not in material; protein SEC buffer 100 mM NaCl, 20 mM Tris-HCl pH 8.0, 1 mM DTT; oligomers formed with ATP and Mg2+. Conditions: protein: recombinant;recombinant;recombinant; tags: purified by Ni-NTA.

Data set [4] deals with the molecule itself. Put plainly: cryo-EM structure; DmDcr-2^DDNN/R2D2/Loqs-PD complex with 50-bp dsRNA 1:1, 25 °C for 2 h, diluted to 1 uM in SEC buffer with 5 mM ATP and 5 mM MgCl2.
The target in data set [5] is T2, DmDcr-2 DDNN;R2D2;Loqs-PD. Put plainly: cryo-EM; ATP, Mg2+; Trimer state (EMD-34708); Cryo-EM sample buffer not in material; protein SEC buffer 100 mM NaCl, 20 mM Tris-HCl pH 8.0, 1 mM DTT; oligomers formed with ATP and Mg2+. Conditions: protein: recombinant;recombinant;recombinant; tags: purified by Ni-NTA.

Several values for one entry are separate records, joined by “and”; a condition that tells them apart may be missing. Identical values can stand only once.

Turning to B1, the binding result in data set [1] and in data set [2] was “binds” in each case.
Consider B2, for which the binding result in data set [3] was “binds”.
With B3, in data set [4], the stoichiometry N – broadly, the number of molecules, sites or subunits per partner or assembly – is 2 and 3.
Turning to B4, in data set [5], the binding result is given as “binds”.
